We go through 29 molecules from patent US20180305431A1 (Novo Nordisk, published 2018).

For experiment [1], the target named is membrane-associated human IR-A (plasma membranes of BHK cells stably transfected with the human IR-A insert) (human) (UniProt P06213). Briefly: SPA competition vs [125I-A14Y]-human insulin, membrane hIR-A, 0.1% HSA.
Experiment [2] addresses membrane-associated human IR-B (plasma membranes of BHK cells stably transfected with the human IR-B insert) (human) (UniProt P06213). The experiment is described as follows: SPA competition vs [125I-A14Y]-human insulin, membrane hIR-B, 0.1% HSA.
The target in experiment [3] is insulin receptor on primary rat adipocytes (rat) (UniProt P15127). Briefly: cell-based or functional assay.
The target in experiment [4] is T1, membrane-associated human IGF-1R (plasma membranes of BHK cells stably transfected with the human IGF-IR … (human, UniProt P08069 31-1367)).
T1 construct: whole, on cells; Receptor in purified plasma membranes, not on intact cells; also called hIGF1R; insulin-like growth factor 1 receptor
Briefly: SPA competition vs [125I-Tyr31]-human IGF-1, membrane hIGF-1R, 0.1% HSA. The procedure: The relative binding affinity for either of the membrane-associated human IR-A, IR-B or IGF-1R is determined by competition binding in a SPA setup. IR assays are performed in duplicate in 96-well OptiPlates (Perkin-Elmer Life Sciences). […] Assays are terminated by centrifugation of the plate at 2000 rpm for 2 minutes and bound radioactivity quantified by counting on a TopCount NXT (Perkin-Elmer Life Sciences).
IGF-1R assays are conducted essentially as for the IR binding assays except that membrane-associated IGF-1R and 50 pM [¹²5-Tyr31]-human IGF-1 were employed.

Experiment [5] deals with T2, solubilised human IR-A (semipurified by wheat germ agglutinin chromatography from baby hamster kidney (BHK) … (human, UniProt P06213-2 28-1370)).
T2 construct: mature; Detergent-solubilised holoreceptor captured by anti-IR mouse antibody 83-7 on SPA beads; the precursor is processed into alpha and beta chains; also called hIRA; human insulin receptor (IR), A isoform
The experiment is described as follows: SPA competition vs [125I-A14Y]-human insulin, solubilised hIR-A, 0% HSA.

For experiment [6], the target named is T2, solubilised human IR-A (semipurified by …). Briefly: SPA competition vs [125I-A14Y]-human insulin, solubilised hIR-A, 1.5% HSA.

insulin receptor on primary rat adipocytes (rat), sequence (P15127 27-1383): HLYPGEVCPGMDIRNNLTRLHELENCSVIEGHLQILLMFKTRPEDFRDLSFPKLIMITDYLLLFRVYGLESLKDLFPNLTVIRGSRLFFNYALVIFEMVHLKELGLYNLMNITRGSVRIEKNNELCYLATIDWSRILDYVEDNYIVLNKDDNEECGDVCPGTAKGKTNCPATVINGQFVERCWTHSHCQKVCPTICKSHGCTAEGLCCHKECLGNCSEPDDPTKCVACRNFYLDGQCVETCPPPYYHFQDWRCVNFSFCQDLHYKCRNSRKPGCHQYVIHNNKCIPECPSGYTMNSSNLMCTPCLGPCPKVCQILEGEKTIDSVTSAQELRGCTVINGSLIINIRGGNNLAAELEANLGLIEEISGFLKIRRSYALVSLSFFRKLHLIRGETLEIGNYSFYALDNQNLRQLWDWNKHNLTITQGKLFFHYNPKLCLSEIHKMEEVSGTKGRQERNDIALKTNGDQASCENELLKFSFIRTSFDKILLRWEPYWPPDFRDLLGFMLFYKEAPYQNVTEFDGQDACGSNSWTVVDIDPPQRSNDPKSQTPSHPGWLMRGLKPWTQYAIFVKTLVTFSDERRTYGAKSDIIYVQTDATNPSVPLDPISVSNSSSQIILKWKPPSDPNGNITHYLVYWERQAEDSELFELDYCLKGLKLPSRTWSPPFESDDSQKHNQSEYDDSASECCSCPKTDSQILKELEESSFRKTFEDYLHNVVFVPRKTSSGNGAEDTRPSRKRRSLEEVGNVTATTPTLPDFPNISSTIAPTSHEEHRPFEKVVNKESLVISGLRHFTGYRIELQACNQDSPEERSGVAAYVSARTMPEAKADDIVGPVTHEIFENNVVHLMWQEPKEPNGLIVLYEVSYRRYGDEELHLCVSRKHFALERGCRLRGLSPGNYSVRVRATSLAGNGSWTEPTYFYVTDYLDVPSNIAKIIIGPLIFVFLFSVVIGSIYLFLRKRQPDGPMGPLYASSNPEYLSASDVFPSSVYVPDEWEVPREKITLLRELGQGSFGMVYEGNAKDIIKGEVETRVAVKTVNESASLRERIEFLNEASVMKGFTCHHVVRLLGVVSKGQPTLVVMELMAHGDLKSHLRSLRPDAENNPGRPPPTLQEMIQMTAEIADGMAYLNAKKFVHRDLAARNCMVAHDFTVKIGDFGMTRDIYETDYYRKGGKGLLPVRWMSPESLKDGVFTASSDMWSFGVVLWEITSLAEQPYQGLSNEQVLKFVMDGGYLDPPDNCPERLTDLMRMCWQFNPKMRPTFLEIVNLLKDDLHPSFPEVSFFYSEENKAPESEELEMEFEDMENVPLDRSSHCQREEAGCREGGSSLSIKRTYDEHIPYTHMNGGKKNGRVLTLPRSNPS
membrane-associated human IR-B (plasma membranes of BHK cells stably transfected with the human IR-B insert) (human), sequence (P06213 28-1382): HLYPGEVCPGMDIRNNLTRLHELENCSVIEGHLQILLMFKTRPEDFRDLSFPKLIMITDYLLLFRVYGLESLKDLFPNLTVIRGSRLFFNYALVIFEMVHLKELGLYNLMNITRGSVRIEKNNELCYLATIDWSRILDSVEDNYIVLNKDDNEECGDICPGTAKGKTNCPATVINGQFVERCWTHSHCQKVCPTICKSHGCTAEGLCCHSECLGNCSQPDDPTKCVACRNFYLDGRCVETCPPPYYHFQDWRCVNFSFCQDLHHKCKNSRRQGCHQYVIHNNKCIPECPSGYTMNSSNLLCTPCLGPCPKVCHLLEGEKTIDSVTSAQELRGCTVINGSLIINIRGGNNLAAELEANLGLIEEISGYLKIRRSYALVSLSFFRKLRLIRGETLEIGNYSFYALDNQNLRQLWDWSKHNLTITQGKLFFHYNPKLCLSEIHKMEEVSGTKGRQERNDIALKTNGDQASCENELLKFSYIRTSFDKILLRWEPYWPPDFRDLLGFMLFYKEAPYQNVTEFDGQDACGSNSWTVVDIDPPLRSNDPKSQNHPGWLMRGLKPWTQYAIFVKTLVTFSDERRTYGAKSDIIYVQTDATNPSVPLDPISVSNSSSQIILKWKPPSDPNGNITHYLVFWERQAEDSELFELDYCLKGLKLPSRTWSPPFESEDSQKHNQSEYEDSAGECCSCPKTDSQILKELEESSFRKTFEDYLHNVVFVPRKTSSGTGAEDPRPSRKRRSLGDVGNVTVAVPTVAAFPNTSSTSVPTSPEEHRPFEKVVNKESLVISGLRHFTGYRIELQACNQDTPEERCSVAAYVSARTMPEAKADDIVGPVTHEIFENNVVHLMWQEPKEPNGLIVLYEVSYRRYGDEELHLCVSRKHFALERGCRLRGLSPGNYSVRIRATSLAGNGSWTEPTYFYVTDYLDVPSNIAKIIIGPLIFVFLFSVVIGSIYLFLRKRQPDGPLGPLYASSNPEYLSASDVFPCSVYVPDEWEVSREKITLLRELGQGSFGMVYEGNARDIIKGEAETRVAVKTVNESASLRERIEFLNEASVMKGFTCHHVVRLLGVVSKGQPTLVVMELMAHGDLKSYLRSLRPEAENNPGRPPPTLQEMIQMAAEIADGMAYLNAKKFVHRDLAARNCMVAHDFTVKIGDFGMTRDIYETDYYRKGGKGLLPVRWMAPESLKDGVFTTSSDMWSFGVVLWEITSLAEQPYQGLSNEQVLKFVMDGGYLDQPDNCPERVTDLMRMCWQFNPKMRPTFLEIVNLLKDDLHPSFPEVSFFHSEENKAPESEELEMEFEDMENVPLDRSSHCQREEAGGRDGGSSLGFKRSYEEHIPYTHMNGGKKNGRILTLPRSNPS
T2 sequence (P06213 other isoform, or with tags, fused parts or gaps limits assumed): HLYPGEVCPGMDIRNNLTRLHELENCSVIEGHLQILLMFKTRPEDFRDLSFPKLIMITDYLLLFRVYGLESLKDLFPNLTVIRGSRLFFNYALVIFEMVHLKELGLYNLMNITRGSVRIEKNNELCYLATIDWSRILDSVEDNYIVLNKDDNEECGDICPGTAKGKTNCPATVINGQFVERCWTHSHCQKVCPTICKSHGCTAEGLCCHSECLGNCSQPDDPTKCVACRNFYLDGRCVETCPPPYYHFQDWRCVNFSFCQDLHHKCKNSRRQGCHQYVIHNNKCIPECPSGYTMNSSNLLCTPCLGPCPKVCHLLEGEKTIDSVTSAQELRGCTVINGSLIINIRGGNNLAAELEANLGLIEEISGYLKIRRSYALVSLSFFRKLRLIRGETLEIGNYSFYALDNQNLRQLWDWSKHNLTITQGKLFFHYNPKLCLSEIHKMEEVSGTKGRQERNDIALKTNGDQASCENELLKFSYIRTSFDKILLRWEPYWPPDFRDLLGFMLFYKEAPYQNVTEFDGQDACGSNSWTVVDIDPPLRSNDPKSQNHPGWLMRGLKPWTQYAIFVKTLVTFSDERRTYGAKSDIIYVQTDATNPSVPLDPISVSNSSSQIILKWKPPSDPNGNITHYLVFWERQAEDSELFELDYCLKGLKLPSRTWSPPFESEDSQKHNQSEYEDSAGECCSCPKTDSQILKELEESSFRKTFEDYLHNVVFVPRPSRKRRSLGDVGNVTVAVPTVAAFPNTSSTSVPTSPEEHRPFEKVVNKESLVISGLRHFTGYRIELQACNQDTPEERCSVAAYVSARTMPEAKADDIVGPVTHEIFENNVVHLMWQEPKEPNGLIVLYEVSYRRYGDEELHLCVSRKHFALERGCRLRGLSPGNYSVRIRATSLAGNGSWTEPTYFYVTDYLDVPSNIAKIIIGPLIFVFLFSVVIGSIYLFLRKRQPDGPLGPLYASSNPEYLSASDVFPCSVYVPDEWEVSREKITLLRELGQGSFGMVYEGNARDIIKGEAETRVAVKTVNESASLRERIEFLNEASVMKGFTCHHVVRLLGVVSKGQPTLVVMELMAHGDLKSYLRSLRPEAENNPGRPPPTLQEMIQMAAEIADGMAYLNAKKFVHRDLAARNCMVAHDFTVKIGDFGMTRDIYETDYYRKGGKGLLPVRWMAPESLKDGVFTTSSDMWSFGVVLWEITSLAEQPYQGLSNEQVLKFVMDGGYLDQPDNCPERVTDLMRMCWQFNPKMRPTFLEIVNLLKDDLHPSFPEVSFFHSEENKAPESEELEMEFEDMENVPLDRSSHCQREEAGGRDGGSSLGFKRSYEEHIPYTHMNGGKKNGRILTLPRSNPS

In the case of “A22K(N(eps)Hexadecanedioyl-gGlu-2xOEG), B3E, B27E, B29R, desB30 human insulin (ligand)”, the relative binding affinity (% rel to HI) in experiment [1] is 71.1 % rel to HI; in experiment [2], 72.1 % rel to HI. Moreover, in experiment [3], the Lipogenesis 1% HSA (% rel to HI) was 3.2 % rel to HI.

With “A22K(N(eps)hexadecanedioyl-4xgGlu), B3E, B26E, B29R, desB30 human insulin (ligand)”, the relative binding affinity (% rel to HI) is 29.1 % rel to HI in experiment [1] and 46.8 % rel to HI in experiment [2].

Take “A22K(N(eps)hexadecanedioyl-4xgGlu), B3E, B27E, B28E, B29R, desB30 human insulin (ligand)”: the relative binding affinity (% rel to HI) in experiment [1] is 29.1 % rel to HI; in experiment [2] it was 35.7 % rel to HI. The Lipogenesis 1% HSA (% rel to HI) in experiment [3] was 4.4 % rel to HI.

With “A22K(N(eps)hexadecanedioyl-4xgGlu), B3E, B27E, B29R, desB30 human insulin (ligand)”, the relative binding affinity (% rel to HI) was 25.7 % rel to HI in experiment [1] and 55.3 % rel to HI in experiment [2]. The Lipogenesis 1% HSA (% rel to HI) in experiment [3] was 1.1 % rel to HI.

As for “A22K(N(eps)hexadecanedioyl-4xgGlu), B3E, B27P, B28E, B29R, desB30 human insulin (ligand)”, the relative binding affinity (% rel to HI) in experiment [1] is 27.5 % rel to HI; in experiment [2], 32.1 % rel to HI. Moreover, the Lipogenesis 1% HSA (% rel to HI) in experiment [3] was 3.7 % rel to HI.

Consider “A22K(N(eps)hexadecanedioyl-4xgGlu), B3E, B28D, B29R, desB30 human insulin (ligand)”, for which the relative binding affinity (% rel to HI) in experiment [1] was 20.9 % rel to HI; in experiment [2], 47.8 % rel to HI. The Lipogenesis 1% HSA (% rel to HI) in experiment [3] was 3.8 % rel to HI.

In the case of “A22K(N(eps)hexadecanedioyl-gGlu-2xOEG), B3E, B26E, B29R, desB30 human insulin (ligand)”, the figures for the relative binding affinity (% rel to HI) in experiment [1] and in experiment [2] were 34.4 % rel to HI and 40.2 % rel to HI, respectively.

Turning to “A22K(N(eps)hexadecanedioyl-gGlu-2xOEG), B3E, B27E, B28E, B29R, desB30 human insulin (ligand)”, the figures for the relative binding affinity (% rel to HI) in experiment [1] and in experiment [2] were 30.9 % rel to HI and 38.2 % rel to HI, respectively. Moreover, in experiment [3], the Lipogenesis 1% HSA (% rel to HI) is 4.4 % rel to HI.

As for “A22K(N(eps)hexadecanedioyl-gGlu-2xOEG), B3E, B27P, B28E, B29R, desB30 human insulin (ligand)”, the relative binding affinity (% rel to HI) in experiment [1] is 31.2 % rel to HI; in experiment [2] it was 29.4 % rel to HI. In addition, in experiment [3], the Lipogenesis 1% HSA (% rel to HI) was 3.3 % rel to HI.

On to “A22K(N(eps)hexadecanedioyl-gGlu-2xOEG), B3E, B28D, B29R, desB30 human insulin (ligand)”, for which the relative binding affinity (% rel to HI) in experiment [1] was 32.1 % rel to HI; in experiment [2] it was 40.7 % rel to HI. Besides, in experiment [3], the Lipogenesis 1% HSA (% rel to HI) is 2.6 % rel to HI.

Take “A22K(N(eps)tetradecanedioyl-4xgGlu), B3E, B26E, B27E, B28E, B29R, desB30 human insulin (ligand)”: the relative binding affinity (% rel to HI) in experiment [1] is 48.3 % rel to HI; in experiment [2] it was 82.4 % rel to HI. Moreover, the Lipogenesis 1% HSA (% rel to HI) in experiment [3] was 18.2 % rel to HI.

Consider “A22K(N(eps)tetradecanedioyl-4xgGlu), B3E, B26E, B27E, B28R, desB29, desB30 human insulin (ligand)”, for which the relative binding affinity (% rel to HI) is 57.2 % rel to HI in experiment [1] and 93.3 % rel to HI in experiment [2]. The Lipogenesis 1% HSA (% rel to HI) in experiment [3] is 29.6 % rel to HI.

Consider “A22K(N(eps)tetradecanedioyl-4xgGlu), B3E, B26E, B27P, B28R, desB29, desB30 human insulin (ligand)”, for which the relative binding affinity (% rel to HI) in experiment [1] was 63.2 % rel to HI; in experiment [2] it was 90.7 % rel to HI. Further, in experiment [3], the Lipogenesis 1% HSA (% rel to HI) is 78.8 % rel to HI.

As for “A22K(N(eps)tetradecanedioyl-4xgGlu), B3E, B26E, B28E, B29P, B30R human insulin (ligand)”, the relative binding affinity (% rel to HI) is 46.4 % rel to HI in experiment [1] and 76.2 % rel to HI in experiment [2]. The Lipogenesis 1% HSA (% rel to HI) in experiment [3] was 17.9 % rel to HI.

With “A22K(N(eps)tetradecanedioyl-4xgGlu), B3E, B26E, B28E, B29R, desB30 human insulin (ligand)”, the results for the relative binding affinity (% rel to HI) in experiment [1] and in experiment [2] were 68 % rel to HI and 111 % rel to HI, respectively. In addition, the Lipogenesis 1% HSA (% rel to HI) in experiment [3] was 20.5 % rel to HI.

On to “A22K(N(eps)tetradecanedioyl-4xgGlu), B3E, B26E, B29R, desB30 human insulin (ligand)”, for which the relative binding affinity (% rel to HI) in experiment [1] is 66.9 % rel to HI; in experiment [2], 105 % rel to HI. In addition, the Lipogenesis 1% HSA (% rel to HI) in experiment [3] was 31.3 % rel to HI.

For “A22K(N(eps)tetradecanedioyl-4xgGlu), B3E, B27E, B28E, B29P, B30R human insulin (ligand)”, the relative binding affinity (% rel to HI) in experiment [1] is 45.1 % rel to HI; in experiment [2], 70 % rel to HI. The Lipogenesis 1% HSA (% rel to HI) in experiment [3] is 23.7 % rel to HI.

Turning to “A22K(N(eps)tetradecanedioyl-4xgGlu), B3E, B27E, B28E, B29R, desB30 human insulin (ligand)”, the relative binding affinity (% rel to HI) in experiment [1] was 74.9 % rel to HI; in experiment [2] it was 157 % rel to HI. For the same molecule, in experiment [3], the Lipogenesis 1% HSA (% rel to HI) is 27.3 % rel to HI.

In the case of “A22K(N(eps)tetradecanedioyl-4xgGlu), B3E, B27E, B28R, desB29, desB30 human insulin (ligand)”, the relative binding affinity (% rel to HI) was 40.6 % rel to HI in experiment [1] and 81.7 % rel to HI in experiment [2]. The Lipogenesis 1% HSA (% rel to HI) in experiment [3] was 29.9 % rel to HI.

Regarding “A22K(N(eps)tetradecanedioyl-4xgGlu), B3E, B27E, B29R, desB30 human insulin (ligand)”, the figures for the relative binding affinity (% rel to HI) in experiment [1] and in experiment [2] were 61.5 % rel to HI and 119 % rel to HI, respectively. Further, in experiment [3], the Lipogenesis 1% HSA (% rel to HI) is 11.1 % rel to HI.

On to “A22K(N(eps)tetradecanedioyl-4xgGlu), B3E, B27P, B28E, B29R, desB30 human insulin (ligand)”, for which the relative binding affinity (% rel to HI) in experiment [1] was 64.3 % rel to HI; in experiment [2], 77.6 % rel to HI. Moreover, the Lipogenesis 1% HSA (% rel to HI) in experiment [3] is 27 % rel to HI.

Regarding “A22K(N(eps)tetradecanedioyl-4xgGlu), B3E, B28D, B29R, desB30 human insulin (ligand)”, the relative binding affinity (% rel to HI) was 64.9 % rel to HI in experiment [1] and 93.7 % rel to HI in experiment [2]. Besides, the Lipogenesis 1% HSA (% rel to HI) in experiment [3] was 26.4 % rel to HI.

Regarding “A22K(N(eps)tetradecanedioyl-4xgGlu), B3E, B28E, B29P, B30R human insulin (ligand)”, the results for the relative binding affinity (% rel to HI) in experiment [1] and in experiment [2] were 44.6 % rel to HI and 94.5 % rel to HI, respectively. For the same molecule, the Lipogenesis 1% HSA (% rel to HI) in experiment [3] is 19.5 % rel to HI.

On to “A22K(N(eps)tetradecanedioyl-4xgGlu), B3Q, B26E, B28E, B29R, desB30 human insulin (ligand)”, for which the relative binding affinity (% rel to HI) in experiment [1] is 78.5 % rel to HI; in experiment [2], 133 % rel to HI. Besides, the Lipogenesis 1% HSA (% rel to HI) in experiment [3] was 31.2 % rel to HI.

Turning to “A22K(N(eps)tetradecanedioyl-4xgGlu), B3Q, B26E, B29R, desB30 human insulin (ligand)”, the results for the relative binding affinity (% rel to HI) in experiment [1] and in experiment [2] were 76.5 % rel to HI and 163 % rel to HI, respectively. Also, the Lipogenesis 1% HSA (% rel to HI) in experiment [3] was 31.4 % rel to HI.

Regarding “A22K(N(eps)tetradecanedioyl-gGlu-2xOEG), B3E, B27E, B28E, B29R, desB30 human insulin (ligand)”, the results for the relative binding affinity (% rel to HI) in experiment [1] and in experiment [2] were 103 % rel to HI and 159 % rel to HI, respectively. In experiment [3], the Lipogenesis 1% HSA (% rel to HI) was 23.9 % rel to HI.

Turning to “A22K(N(eps)tetradecanedioyl-gGlu-2xOEG), B3E, B27P, B28E, B29R, desB30 human insulin (ligand)”, the relative binding affinity (% rel to HI) in experiment [1] is 75.6 % rel to HI; in experiment [2], 75.9 % rel to HI. Further, the Lipogenesis 1% HSA (% rel to HI) in experiment [3] was 20.3 % rel to HI.

With “A22K(N(eps)tetradecanedioyl-gGlu-2xOEG), B3E, B28D, B29R, desB30 human insulin (ligand)”, the relative binding affinity (% rel to HI) is 93.9 % rel to HI in experiment [1] and 108 % rel to HI in experiment [2]. Further, the Lipogenesis 1% HSA (% rel to HI) in experiment [3] is 21.3 % rel to HI.

B1: A8R, A22K(N(eps)tetradecanedioyl-4xgGlu), B3E, B26E, B28E, B29R, desB30 human insulin (ligand)
chain 1: GIVEQCCRSICSLYQLENYCNK
chain 2: FVEQHLCGSHLVEALYLVCGERGFFETER
modifications: not fully specified; Lys A22 acylated on N(eps) with tetradecanedioyl-4xgGlu
notes: Two-chain acylated insulin analogue; also called Ex. No. 23
In the case of B1, the relative binding affinity (% rel to HI) is 78.5 % rel to HI in experiment [1]; 5.7 % rel to HI in experiment [4]; 229 % rel to HI in experiment [5]; 143 % rel to HI in experiment [2]; 182 % rel to HI in experiment [6]. Besides, the Lipogenesis 1% HSA (% rel to HI) in experiment [3] is 59 % rel to HI.
